Results on 36 substances are retold here after article PMC6704107.

Sequence of AAVR (Q8IZA0 whole entry): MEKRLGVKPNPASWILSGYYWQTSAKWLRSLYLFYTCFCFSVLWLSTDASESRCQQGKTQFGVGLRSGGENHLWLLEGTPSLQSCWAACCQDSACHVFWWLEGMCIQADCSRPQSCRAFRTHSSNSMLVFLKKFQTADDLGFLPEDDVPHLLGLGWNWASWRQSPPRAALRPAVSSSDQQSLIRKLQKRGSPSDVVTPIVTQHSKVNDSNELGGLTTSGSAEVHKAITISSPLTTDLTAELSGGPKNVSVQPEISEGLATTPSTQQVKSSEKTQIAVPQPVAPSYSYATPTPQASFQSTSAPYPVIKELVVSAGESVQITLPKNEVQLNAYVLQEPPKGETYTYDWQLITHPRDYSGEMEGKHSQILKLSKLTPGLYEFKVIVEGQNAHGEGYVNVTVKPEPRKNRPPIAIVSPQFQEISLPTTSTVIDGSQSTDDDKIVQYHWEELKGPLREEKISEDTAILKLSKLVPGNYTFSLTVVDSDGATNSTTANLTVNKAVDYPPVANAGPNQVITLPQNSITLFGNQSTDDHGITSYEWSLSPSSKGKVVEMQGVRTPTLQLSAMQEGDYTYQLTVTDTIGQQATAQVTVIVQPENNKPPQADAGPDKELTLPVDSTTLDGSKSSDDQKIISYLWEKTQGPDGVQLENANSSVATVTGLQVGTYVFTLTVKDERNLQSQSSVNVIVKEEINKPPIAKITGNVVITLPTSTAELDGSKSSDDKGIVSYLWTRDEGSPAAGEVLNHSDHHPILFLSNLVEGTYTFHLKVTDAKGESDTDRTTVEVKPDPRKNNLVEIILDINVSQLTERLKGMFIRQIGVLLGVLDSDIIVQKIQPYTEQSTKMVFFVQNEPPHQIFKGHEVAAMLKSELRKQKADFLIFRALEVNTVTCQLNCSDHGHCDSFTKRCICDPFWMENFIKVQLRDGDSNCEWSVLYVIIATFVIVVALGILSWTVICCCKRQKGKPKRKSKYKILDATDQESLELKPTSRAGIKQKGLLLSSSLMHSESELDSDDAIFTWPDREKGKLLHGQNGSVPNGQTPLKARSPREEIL

For the first test, the target named is Adeno-associated virus receptor (AAVR), wild-type, PKD1-5 domains (UniProt Q8IZA0).
Assay: not given
Conditions: not given
Take “AAV5 particle with capsid mutation Y542A (from UniProt Q9YIJ1 1-724) (complex)”: the transduction of HEK293T cells (endogenous AAVR) by the mutated AAV5-GFP, functional titer against wt AAV5 was 15 % of wt AAV5.
For the substance “AAV5 particle with capsid mutation E708A (from UniProt Q9YIJ1 1-724) (complex)”, the transduction of HEK293T cells (endogenous AAVR) by the mutated AAV5-GFP, functional titer against wt AAV5 was 50 % of wt AAV5.
As for “AAV5 particle with capsid mutation Q532A (from UniProt Q9YIJ1 1-724) (complex)”, the transduction of HEK293T cells (endogenous AAVR) by the mutated AAV5-GFP, functional titer against wt AAV5 is 50 % of wt AAV5.

In a further test the target is Adeno-associated virus 1 (AAV1) particle, wild-type capsid (adeno-associated virus 1 (AAV1)) (UniProt Q9WBP8).
Assay: not given
Conditions: not given
“AAVR PKD1-5 T434A (from UniProt Q8IZA0-1 1-1049) (receptor)” gave an AAV1-mCherry transduction of AAVR-silenced HEK293T cells expressing AAVR with this mutation (pcDNA3.1(+)-AAVR) (% of AAV1 infection) of 70.
Substance “AAVR PKD1-5 D435A (from UniProt Q8IZA0-1 1-1049) (receptor)” came in with an AAV1-mCherry transduction of AAVR-silenced HEK293T cells expressing AAVR with this mutation (pcDNA3.1(+)-AAVR) (% of AAV1 infection) of 70.

The next test deals with AAV2 capsid (Adeno-associated virus 2) (UniProt P03135).
Assay: not given
Particulars: cited from earlier work.
As a reminder, the Kd is the concentration at which binding is half-saturated. AAVR (from UniProt Q8IZA0): the dissociation constant Kd was 57 nM.

A further test has as its target Adeno-associated virus 1 (AAV1) particle, wild-type capsid (adeno-associated virus 1 (AAV1)) (UniProt Q9WBP8). Nature of the test: SPR; Biacore T200; AAV1 or AAV5 particles immobilised on a CM5 chip by amide coupling; wt or mutated AAVR flowed over; 30 μl/min, 25 °C, PBS.
Conditions: not given
On the technique in general: SPR reads the build-up and loss of mass on a sensor chip optically.
“Adeno-associated virus receptor (AAVR), wild-type, PKD1-5 domains (from UniProt Q8IZA0-1 1-1049)”: the Kd came to 13.9 nM.
Still for that read-out and setting: the same measure for “AAVR PKD1-5 K464A (from UniProt Q8IZA0-1 1-1049) (receptor)”: 1.32 nM.

The next test concerns the target Adeno-associated virus 5 (AAV5) particle, wild-type capsid (adeno-associated virus 5 (AAV5)) (UniProt Q9YIJ1). The description is as above.
Conditions: not given
With “AAVR PKD1-5 K399A (from UniProt Q8IZA0-1 1-1049) (receptor)”, the Kd turned out to be 71900 nM.
Turning to “AAVR PKD1-5 T397A (from UniProt Q8IZA0-1 1-1049) (receptor)”, the fold decrease of binding affinity against wt AAVR worked out at 100 fold.
“AAVR PKD1-5 I349A (from UniProt Q8IZA0-1 1-1049) (receptor)” registered an equilibrium dissociation constant (Kd) of 7 nM.
The same measure, in the same setting: the same measure for “Adeno-associated virus receptor (AAVR), wild-type, PKD1-5 domains (from UniProt Q8IZA0-1 1-1049)”: 287 nM.
Substance “AAVR PKD1-5 D354A (from UniProt Q8IZA0-1 1-1049) (receptor)” returned a fold decrease of binding affinity against wt AAVR of 100 fold.
For “AAVR PKD1-5 S356A (from UniProt Q8IZA0-1 1-1049) (receptor)”, the fold decrease of binding affinity against wt AAVR amounted to 100 fold.

The target of the next test is recombinant AAV1 particles (AAV1 capsid) (adeno-associated virus 1) (UniProt Q9WBP8). Put plainly: SPR; Biacore T200; AAV1 or AAV5 particles immobilised on a CM5 chip by amide coupling (sodium acetate pH 4.5); wt or mutated AAVR flowed over at 30 ul/min, 25 C, PBS; triplicate experiments, mean with standard error.
Conditions: not given
Consider “AAVR PKD1-5 T350A (from UniProt Q8IZA0-1 1-1049) (domain or fragment)”, for which the Kd stood at 14.2 nM.
Take “AAVR PKD1-5 D354A (from UniProt Q8IZA0-1 1-1049) (domain or fragment)”: the Kd came out at 17.4 nM.
On to “AAVR PKD1-5 R353A (from UniProt Q8IZA0-1 1-1049) (domain or fragment)”, for which the dissociation constant Kd amounted to 20.5 nM.
Same read-out and setting: the same measure for “AAVR PKD1-5 I349A (from UniProt Q8IZA0-1 1-1049) (domain or fragment)”: 18.5 nM.
For the substance “AAVR PKD1-5 K399A (from UniProt Q8IZA0-1 1-1049) (domain or fragment)”, the Kd was found to be 17.5 nM.
Still for that read-out and setting: the same measure for “wild-type AAVR PKD1-5 domains with a C-terminal His-tag (from UniProt Q8IZA0-1 1-1049) (domain or fragment)”: 16.2 nM; for “AAVR PKD1-5 S356A (from UniProt Q8IZA0-1 1-1049) (domain or fragment)”: 12.2 nM.
Turning to “AAVR PKD1-5 T397A (from UniProt Q8IZA0-1 1-1049) (domain or fragment)”, the Kd worked out at 17.7 nM.
Still for that read-out and setting: the same measure for “AAVR PKD1-5 E378A (from UniProt Q8IZA0-1 1-1049) (domain or fragment)”: 19.9 nM; for “AAVR PKD1-5 L376A (from UniProt Q8IZA0-1 1-1049) (domain or fragment)”: 16.7 nM.

The target of the next test is recombinant AAV5 particles (AAV5 capsid) (adeno-associated virus 5) (UniProt Q9YIJ1). The description is as above.
Conditions: not given
“AAVR PKD1-5 S431A (from UniProt Q8IZA0-1 1-1049) (domain or fragment)”: the Kd was found to be 244 nM.
Take “AAVR PKD1-5 V427A (from UniProt Q8IZA0-1 1-1049) (domain or fragment)”: the equilibrium dissociation constant (Kd) was found to be 306 nM.
Regarding “AAVR PKD1-5 D429A (from UniProt Q8IZA0-1 1-1049) (domain or fragment)”, the Kd is 243 nM.
In the case of “AAVR PKD1-5 D435A (from UniProt Q8IZA0-1 1-1049) (domain or fragment)”, the dissociation constant (Kd) came out at 234 nM.
Turning to “AAVR PKD1-5 S425A (from UniProt Q8IZA0-1 1-1049) (domain or fragment)”, the Kd is 329 nM.
On the same count and under the same terms, the same measure for “AAVR PKD1-5 K438A (from UniProt Q8IZA0-1 1-1049) (domain or fragment)”: 270 nM; for “AAVR PKD1-5 S433A (from UniProt Q8IZA0-1 1-1049) (domain or fragment)”: 284 nM.
Regarding “AAVR PKD1-5 T426A (from UniProt Q8IZA0-1 1-1049) (domain or fragment)”, the Kd was found to be 311 nM.
Same read-out and setting: the same measure for “AAVR PKD1-5 D436A (from UniProt Q8IZA0-1 1-1049) (domain or fragment)”: 295 nM.
Turning to “AAVR PKD1-5 T434A (from UniProt Q8IZA0-1 1-1049) (domain or fragment)”, the equilibrium dissociation constant (Kd) was found to be 289 nM.
“AAVR PKD1-5 Y442A (from UniProt Q8IZA0-1 1-1049) (domain or fragment)”: the Kd worked out at 269 nM.
For the substance “AAVR PKD1-5 K464A (from UniProt Q8IZA0-1 1-1049) (domain or fragment)”, the Kd came out at 265 nM.
The same measure, in the same setting: to “AAVR PKD1-5 D437A (from UniProt Q8IZA0-1 1-1049) (domain or fragment)” belongs 252 nM.
